Laboratory results as given in patent US20170275344A1, “POLYPEPTIDES AND USES THEREOF AS A DRUG FOR TREATMENT OF AUTOIMMUNE DISORDERS” (Compugen Ltd., priority 2014, published 2017).

Columns and labels:
NOD mice = assay: Type 1 diabetes incidence in NOD mice (blood glucose monitoring); type: in vivo, mouse; settings: for mice that developed T1D: 100 ug/dose
Protocol: The effect of C1ORF32 ECD-Fc treatment on modulation of disease incidence was tested in NOD mice, which spontaneously develop a T1D disease. In NOD mice, autoreactive CD4+ can be observed within the β-islets as early as 2 weeks of age (Yang et al., Immunity 1996 February; 4(2):189-94), and by 10 weeks of age, when the treatment with C1ORF32 ECD-Fc (SEQ ID NO: 42) began in the present experiments, NOD mice develop peri-insulitis and β-cell loss (Jimeno et al., Immunology and Cell Biology. (2010) 88, 734-745).
Materials: C1ORF ECD-Fc (SEQ ID NO:42) was used in these studies, as described below. Control Ig was mouse IgG2a from BioXcell (Cat# BE0085). NOD mice were purchased from Jackson labs, and blood glucose was measured via sampling a small drop of blood from the tail vein.
Methods: Six week old NOD mice were purchased from Jackson labs. At 10 weeks of age, mice were split into groups and treated with either vehicle (PBS) Control Ig or C1ORF ECD-Fc (SEQ ID NO:42) as detailed below. Treatment was given via IP injections 3×/wk/2 wks. Blood glucose levels were monitored weekly from 8 weeks of age until the mice reached […] of age as detailed below. Mice were considered diabetic upon having two consecutive blood glucose readings of >250 mg/dL. Diabetic mice were sacrificed on the day of the second high glucose level reading. Blood glucose levels were obtained from the tail vein, and the level of blood glucose measured via use of a OneTouch. UltraSmart. Blood Glocuse Monitoring System (OneTouch; Johnson & Johnson; New Brunswick, N.J.) in a blinded manner. This study was carried out 3 times; For study 3 proteins were provided coded.
Treatment groups (n=5 mice/group): 1. Control Ig (mouse IgG2a), 100 ug/dose 2. C1ORF ECD-Fc (SEQ ID NO:42), 100 ug/dose.
Treatment groups (n=14-15): 1. Control Ig (mouse IgG2a; BioXcell) (100 ug/dose) 2. C1ORF ECD-Fc (SEQ ID NO:42) (100 ug/dose)

SJL/J mice = assay: PLP139-151/CFA R-EAE upon IL-10 or TGFb blockade, clinical score; type: in vivo, mouse
Protocol: SJL/J mice were purchased from Harlan and primed with PLP139-151/CFA per the standard protocol, as described in 21.1.2 Methods, above). At disease remission the mice were split into 6 different treatment groups (n=5) as follows:
Mice were treated with Control Ig (mouse IgG2a) or C1ORF32 ECD-Fc (SEQ ID NO:42) at 100 ug/dose, each via an i.p. injection. This was followed with a second i.p. injection on the same day of either anti-IL-10 (rat IgG1), rat IgG1 (control Ab), or anti-TGFβ (mouse IgG1) at 100 ug/dose, each. All treatments were given 3×/wk for 2 wks, beginning on day +20 (onset of disease remission) and until day +31 post disease induction. All mice were followed for disease scores until day 44 post disease induction. On day 44, mice were sacrificed and analyzed for total T cell and Treg cell numbers in spleen and CNS.
At onset of disease remission (day +20 post disease induction) mice were allocated into 6 treatment groups (described above) and treated with either C1ORF32 ECD-Fc (SEQ ID NO:42) or control Ig (mIgG2a), and followed on the same day by treatment with anti-IL-10, anti-TGF-β, or rat IgG1 isotype control. All treatments were given at 100 ug/dose in 100 μl of PBS; via i.p. injection, at 3×/week for 2 weeks from onset of remission.
Mice were followed for disease and scored on a 0-5 scale per standard lab protocol as follows: 0, no abnormality; 1, limp tail; 2, limp tail and hind limb weakness; 3, hind limb paralysis; 4, hind limb paralysis and forelimb weakness; and 5, moribund. Dead mice were scored with a score of 5 on the day of death only, and were not further scored on the next days.

[1] = combined data from all 3 studies

B1: C1ORF32 ECD-Fc (SEQ ID NO:42): fusion protein of human C1ORF32 ECD fused to mouse immunoglobulin Fc (human-mouse fusion protein) (protein)
chain: LQVTVPDKKKVAMLFQPTVLRCHFSTSSHQPAVVQWKFKSYCQDRMGESLGMSSTRAQSLSKRNLEWDPYLDCLDSRRTVRVVASKQGSTVTLGDFYRGREITIVHDADLQIGKLMWGDSGLYYCIITTPDDLEGKNEDSVELLVLGRTGLLADLLPSFAVEIMGSENLYFQGSGEPRGPTIKPCPPCKCPAPNLLGGPSVFIFPPKIKDVLMISLSPIVTCVVVDVSEDDPDVQISWFVNNVEVHTAQTQTHREDYNSTLRVVSALPIQHQDWMSGKEFKCKVNNKDLPAPIERTISKPKGSVRAPQVYVLPPPEEEMTKKQVTLTCMVTDFMPEDIYVEWTNNGKTELNYKNTEPVLDSDGSYFMYSKLRVEKKNWVERNSYSCSVVHEGLHNHHTTKSFSRTPGK
modifications: Fusion protein human C1ORF32-ECD fused to mouse IgG2a Fc
- mice prevented from developing full blown autoimmune diabetes (NOD mice; NOD mice, overall statement): 77%
- mice that did not develop T1D (NOD mice; Study I, n=5, 100 ug/dose IP 3x/wk for 2 wks from 10 wks of age): 3 out of 5
- mice that developed T1D (NOD mice; Study II, n=6): 1 out of 6
- mice that developed T1D (NOD mice; Study III, n=14-15, by the age of 24 weeks): 3 out of 15
- mice in which T1D was observed (NOD mice; [1]): 6 out of 26
- percent of mice in which T1D was observed (NOD mice; [1]): 23%
- disease progression (SJL/J mice; 100 ug/dose i.p. 3x/wk 2 wks from day +20, followed by rIgG1, vs control Abs only): pronounced inhibition of disease progression
- beneficial effect on disease with concomitant anti-IL-10 (SJL/J mice; followed by anti-IL-10 100 ug/dose): abrogated the beneficial effect
- beneficial effect on disease with concomitant anti-TGFβ (SJL/J mice; followed by anti-TGFβ 100 ug/dose): abrogated the beneficial effect
- mice found dead (SJL/J mice; group C1ORF32 ECD-Fc and anti-TGFβ, day 28, n=5): 1
- mice found dead (SJL/J mice; group C1ORF32 ECD-Fc in combination with anti-IL-10, day 28, n=5): 2
